T1: TJP3_2, O95049
T1 sequence (O95049 190-282, limits assumed, looked up): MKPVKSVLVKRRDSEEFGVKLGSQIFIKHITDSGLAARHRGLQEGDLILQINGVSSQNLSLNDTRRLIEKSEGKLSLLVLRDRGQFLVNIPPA

T2: PDZD2_3, O15018
T2 sequence (O15018 581-682, limits assumed, looked up): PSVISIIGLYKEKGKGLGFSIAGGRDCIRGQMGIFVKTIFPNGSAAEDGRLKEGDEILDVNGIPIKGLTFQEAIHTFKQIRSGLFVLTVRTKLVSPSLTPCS

T3: PDZD2_5, O15018
T3 sequence (O15018 2617-2716, limits assumed, looked up): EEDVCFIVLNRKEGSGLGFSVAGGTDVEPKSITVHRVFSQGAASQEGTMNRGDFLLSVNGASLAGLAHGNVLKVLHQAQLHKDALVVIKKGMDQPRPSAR

T4: MPDZ_2, O75970
T4 sequence (O75970 252-347, limits assumed, looked up): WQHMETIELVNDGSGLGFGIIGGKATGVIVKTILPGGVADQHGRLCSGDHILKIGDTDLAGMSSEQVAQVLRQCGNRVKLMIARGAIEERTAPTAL

T5: PDZD2_4, O15018
T5 sequence (O15018 723-823, limits assumed, looked up): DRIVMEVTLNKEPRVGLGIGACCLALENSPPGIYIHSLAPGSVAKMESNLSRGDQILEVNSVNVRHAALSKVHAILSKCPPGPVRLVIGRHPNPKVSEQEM

T6: USH1C_3, Q9Y6N9
T6 sequence (Q9Y6N9 447-547, limits assumed, looked up): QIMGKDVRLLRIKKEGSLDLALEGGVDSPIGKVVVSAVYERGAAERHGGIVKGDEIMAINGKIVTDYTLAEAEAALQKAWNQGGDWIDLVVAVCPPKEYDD

T7: RGS12, O14924
T7 sequence (O14924 17-108, limits assumed, looked up): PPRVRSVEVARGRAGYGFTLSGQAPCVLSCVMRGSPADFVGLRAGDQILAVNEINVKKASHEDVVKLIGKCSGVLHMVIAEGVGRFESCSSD

T8: MLLT4, P55196
T8 sequence (P55196 1002-1103, limits assumed, looked up): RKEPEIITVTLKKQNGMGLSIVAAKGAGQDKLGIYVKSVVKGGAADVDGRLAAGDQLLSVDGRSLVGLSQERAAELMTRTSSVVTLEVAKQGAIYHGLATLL

T9: PDZD2_1, O15018
T9 sequence (O15018 80-192, limits assumed, looked up): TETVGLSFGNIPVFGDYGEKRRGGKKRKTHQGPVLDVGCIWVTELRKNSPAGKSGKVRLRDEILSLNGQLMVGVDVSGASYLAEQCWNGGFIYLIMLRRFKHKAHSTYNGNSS

T10: SNTB2, Q13425
T10 sequence (Q13425 110-208, limits assumed, looked up): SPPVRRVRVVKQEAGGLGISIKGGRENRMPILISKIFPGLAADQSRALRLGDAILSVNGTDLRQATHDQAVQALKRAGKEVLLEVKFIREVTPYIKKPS

T11: SHANK2, Q9UPX8
T11 sequence (Q9UPX8 621-730, limits assumed, looked up): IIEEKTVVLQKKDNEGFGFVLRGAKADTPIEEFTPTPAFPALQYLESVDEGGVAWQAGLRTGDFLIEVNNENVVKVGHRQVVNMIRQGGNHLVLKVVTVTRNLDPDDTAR

T12: SHROOM4, Q9ULL8
T12 sequence (Q9ULL8 5-102, limits assumed, looked up): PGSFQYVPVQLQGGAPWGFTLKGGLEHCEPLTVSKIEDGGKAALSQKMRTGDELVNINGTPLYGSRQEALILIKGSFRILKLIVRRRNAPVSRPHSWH

T13: MPP5, Q8N3R9
T13 sequence (Q8N3R9 251-346, limits assumed, looked up): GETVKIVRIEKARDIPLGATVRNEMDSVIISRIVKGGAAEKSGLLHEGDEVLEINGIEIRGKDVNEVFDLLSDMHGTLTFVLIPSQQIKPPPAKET

T14: SYNPO2L, Q9H987
T14 sequence (Q9H987 1-98, limits assumed, looked up): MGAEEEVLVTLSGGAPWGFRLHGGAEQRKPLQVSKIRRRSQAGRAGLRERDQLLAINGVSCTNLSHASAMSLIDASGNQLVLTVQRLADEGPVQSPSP

B1: SARS-Cov2-N, P0DTC9 (peptide)
chain: QQSMSSADSTQA
B2: WNV-NS5, Q9Q6P4 (peptide)
chain: RYEDTTLVEDTVL
B3: HPV16-E6_-2P, P03126 (peptide)
chain: SSRTRRETQL
B4: HBV-HBc, P03193 (peptide)
chain: RRRRSQSRESQC

Key:
Assay in all cases: holdup assay
Set-up in all cases: key: below the threshold = too weak to quantify, mostly under pKd 3.1 to 4
DLG2_1, Q15700 = biological target: DLG2_1, Q15700
TJP3_2, O95049 = biological target: T1, TJP3_2, O95049
PDZD2_3, O15018 = biological target: T2, PDZD2_3, O15018
PDZD2_5, O15018 = biological target: T3, PDZD2_5, O15018
MPDZ_2, O75970 = biological target: T4, MPDZ_2, O75970
PDZD2_4, O15018 = biological target: T5, PDZD2_4, O15018
DLG5_2, Q8TDM6 = biological target: DLG5_2, Q8TDM6
USH1C_3, Q9Y6N9 = biological target: T6, USH1C_3, Q9Y6N9
PDLIM4, P50479 = biological target: PDLIM4, P50479
DLG1_3, Q12959 = biological target: DLG1_3, Q12959
MAGI1_5, Q96QZ7 = biological target: MAGI1_5, Q96QZ7
RGS12, O14924 = biological target: T7, RGS12, O14924; conditions: plain residues with an end cap or a label only (N-terminal biotin on a linker: (peg)3)
MLLT4, P55196 = biological target: T8, MLLT4, P55196
PDZRN4_2, Q6ZMN7 = biological target: PDZRN4_2, Q6ZMN7
PDZD2_1, O15018 = biological target: T9, PDZD2_1, O15018
MAGI1_6, Q96QZ7 = biological target: MAGI1_6, Q96QZ7
SNTB2, Q13425 = biological target: T10, SNTB2, Q13425; conditions: plain residues with an end cap or a label only (N-terminal biotin on a linker: (peg)3)
SHANK2, Q9UPX8 = biological target: T11, SHANK2, Q9UPX8
LNX1_4, Q8TBB1 = conditions: plain residues with an end cap or a label only (N-terminal biotin on a linker: (peg)3)
Inadl_9, Q8NI35 = biological target: Inadl_9, Q8NI35
SHROOM4, Q9ULL8 = biological target: T12, SHROOM4, Q9ULL8
MPP5, Q8N3R9 = biological target: T13, MPP5, Q8N3R9
SYNPO2L, Q9H987 = biological target: T14, SYNPO2L, Q9H987
[1] = plain residues with an end cap or a label only (N-terminal biotin on a linker: (peg)3)
[2] = modified: phospho on T at position -2 from the C-terminal residue

Chain of DLG5_2, Q8TDM6 (Q8TDM6 714-800): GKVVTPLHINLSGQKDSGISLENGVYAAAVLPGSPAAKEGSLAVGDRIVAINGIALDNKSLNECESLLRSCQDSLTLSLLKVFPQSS
Chain of LNX1_4, Q8TBB1 (Q8TBB1 631-726): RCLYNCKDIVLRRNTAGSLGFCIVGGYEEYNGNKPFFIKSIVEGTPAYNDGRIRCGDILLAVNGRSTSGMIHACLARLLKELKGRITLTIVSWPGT
Chain of MAGI1_6, Q96QZ7 (Q96QZ7 1146-1238): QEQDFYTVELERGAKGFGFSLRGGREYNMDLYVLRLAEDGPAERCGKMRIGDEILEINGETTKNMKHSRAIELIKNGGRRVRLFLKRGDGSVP
Chain of DLG1_3, Q12959 (Q12959 457-571): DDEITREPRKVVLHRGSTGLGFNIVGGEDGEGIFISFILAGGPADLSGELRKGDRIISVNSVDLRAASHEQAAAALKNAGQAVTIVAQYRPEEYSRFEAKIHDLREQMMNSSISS
Chain of MAGI1_5, Q96QZ7 (Q96QZ7 986-1098): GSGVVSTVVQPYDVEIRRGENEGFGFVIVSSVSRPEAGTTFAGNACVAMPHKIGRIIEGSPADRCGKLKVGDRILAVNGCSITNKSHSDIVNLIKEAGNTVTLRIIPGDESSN
Chain of PDZRN4_2, Q6ZMN7 (Q6ZMN7 389-498): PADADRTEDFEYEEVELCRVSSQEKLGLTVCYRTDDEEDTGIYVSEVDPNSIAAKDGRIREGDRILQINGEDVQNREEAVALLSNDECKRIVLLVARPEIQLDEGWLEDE
Chain of PDLIM4, P50479 (P50479 1-83): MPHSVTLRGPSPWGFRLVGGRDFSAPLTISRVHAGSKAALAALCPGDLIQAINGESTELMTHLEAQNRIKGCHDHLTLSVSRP
Chain of Inadl_9, Q8NI35 (Q8NI35 1530-1615): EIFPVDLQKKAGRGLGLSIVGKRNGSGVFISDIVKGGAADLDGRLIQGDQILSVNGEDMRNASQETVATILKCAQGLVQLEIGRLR

Row | Binder | pKd (DLG2_1, Q15700; [1]) | pKd (TJP3_2, O95049; [1]) | pKd (PDZD2_3, O15018; [1]) | pKd (MPDZ_2, O75970; [1]) | pKd (PDZD2_4, O15018; [1]) | pKd (DLG5_2, Q8TDM6; [1]) | pKd (USH1C_3, Q9Y6N9; [1]) | pKd (PDLIM4, P50479; [1]) | pKd (DLG1_3, Q12959; [1]) | pKd (MAGI1_5, Q96QZ7; [1]) | pKd (RGS12, O14924) | pKd (MLLT4, P55196; [1]) | pKd (PDZRN4_2, Q6ZMN7; [1]) | pKd (PDZD2_1, O15018; [1]) | pKd (MAGI1_6, Q96QZ7; [1]) | pKd (SNTB2, Q13425) | pKd (SHANK2, Q9UPX8; [1]) | pKd (LNX1_4, Q8TBB1) | pKd (Inadl_9, Q8NI35; [1]) | pKd (SHROOM4, Q9ULL8; [1]) | further results
1 | B1 | below the threshold | below the threshold | below the threshold | below the threshold | below the threshold | below the threshold | below the threshold | below the threshold | below the threshold | below the threshold | below the threshold | below the threshold | below the threshold | below the threshold | below the threshold | below the threshold | below the threshold | below the threshold | below the threshold | below the threshold | pKd (PDZD2_5, O15018; [1]): below the threshold; pKd (MPP5, Q8N3R9; [1]): below the threshold; pKd (SYNPO2L, Q9H987; [1]): below the threshold
2 | B2 | 4.28 | 4.25 | below the threshold | below the threshold | below the threshold | below the threshold | below the threshold | below the threshold | 3.51 | 3.84 | below the threshold | below the threshold | below the threshold | below the threshold | below the threshold | below the threshold | 4.59 | below the threshold | below the threshold | below the threshold | pKd (PDZD2_5, O15018; [1]): below the threshold; pKd (MPP5, Q8N3R9; [1]): below the threshold; pKd (SYNPO2L, Q9H987; [1]): below the threshold
3 | B3 |  |  |  |  |  |  |  |  |  |  |  |  |  |  |  |  |  |  |  |  | pKd (DLG2_1, Q15700; [2]): below the threshold; pKd (TJP3_2, O95049; [2]): below the threshold; pKd (PDZD2_3, O15018; [2]): below the threshold; pKd (PDZD2_5, O15018; [2]): below the threshold; pKd (MPDZ_2, O75970; [2]): below the threshold; pKd (PDZD2_4, O15018; [2]): below the threshold; pKd (DLG5_2, Q8TDM6; [2]): below the threshold; pKd (USH1C_3, Q9Y6N9; [2]): below the threshold; pKd (PDLIM4, P50479; [2]): below the threshold; pKd (DLG1_3, Q12959; [2]): below the threshold; pKd (MAGI1_5, Q96QZ7; [2]): below the threshold; pKd (MLLT4, P55196; [2]): below the threshold; pKd (PDZRN4_2, Q6ZMN7; [2]): 4.26; pKd (PDZD2_1, O15018; [2]): below the threshold; pKd (MAGI1_6, Q96QZ7; [2]): below the threshold; pKd (SHANK2, Q9UPX8; [2]): below the threshold; pKd (Inadl_9, Q8NI35; [2]): below the threshold; pKd (SHROOM4, Q9ULL8; [2]): below the threshold; pKd (MPP5, Q8N3R9; [2]): below the threshold; pKd (SYNPO2L, Q9H987; [2]): below the threshold
4 | B4 | 4.51 | below the threshold | below the threshold | below the threshold | below the threshold | below the threshold | below the threshold | below the threshold | 3.98 | below the threshold | below the threshold | below the threshold | below the threshold | below the threshold | below the threshold | 4.58 | below the threshold | below the threshold | below the threshold | below the threshold | pKd (MPP5, Q8N3R9; [1]): below the threshold; pKd (SYNPO2L, Q9H987; [1]): below the threshold
